The source of these data is FireProtDB (doi:10.1021/bi00125a013).

For this series the following is noted: Bacillus amyloliquefaciens, 20 °C, Urea, Fluorescence, whole UniProt chain shown.
Setting [1] is: pH 2.76, diglycine 30 mM, NaCl 0.5 M.
Where [2] appears, read: pH 2.82, diglycine 30 mM, NaCl 0.1 M.

B1: Ribonuclease wild type, P00648 (protein)
chain: MMKMEGIALKKRLSWISVCLLVLVSAAGMLFSTAAKTETSSHKAHTEAQVINTFDGVADYLQTYHKLPDNYITKSEAQALGWVASKGNLADVAPGKSIGGDIFSNREGKLPGKSGRTWREADINYTSGFRNSDRILYSSDWLIYKTTDHYQTFTKIR
Take B1: the denaturant m value amounted to 3.22 kcal/mol/M (pH 2.5, diglycine 100 mM); 2.62 kcal/mol/M under setting [1]; 2.97 kcal/mol/M under setting [2]; 3.19 kcal/mol/M (pH 2.87, diglycine 30 mM); 3.28 kcal/mol/M (pH 2.98, diglycine 100 mM). Moreover, the “denaturant midpoint (higher = more stable)” value runs as follows: (pH 2.5, diglycine 100 mM) 0.52 M; under setting [1], 1.61 M; under setting [2], 1.21 M; (pH 2.87, diglycine 30 mM) 1.14 M; (pH 2.98, diglycine 100 mM) 1.39 M. Moreover, the unfolding free energy runs as follows: (pH 2.5, diglycine 100 mM) 1.66 kcal/mol; under setting [1], 4.2 kcal/mol; under setting [2], 3.58 kcal/mol; (pH 2.87, diglycine 30 mM) 3.63 kcal/mol; (pH 2.98, diglycine 100 mM) 4.55 kcal/mol.
